Results published in publication doi:10.1101/2020.06.25.170399 (bioRxiv, 2020).

Target: T1, γ subunit of human NAD-dependent isocitrate dehydrogenase (IDH3) (human, UniProt P51553 40-393)
T1 sequence: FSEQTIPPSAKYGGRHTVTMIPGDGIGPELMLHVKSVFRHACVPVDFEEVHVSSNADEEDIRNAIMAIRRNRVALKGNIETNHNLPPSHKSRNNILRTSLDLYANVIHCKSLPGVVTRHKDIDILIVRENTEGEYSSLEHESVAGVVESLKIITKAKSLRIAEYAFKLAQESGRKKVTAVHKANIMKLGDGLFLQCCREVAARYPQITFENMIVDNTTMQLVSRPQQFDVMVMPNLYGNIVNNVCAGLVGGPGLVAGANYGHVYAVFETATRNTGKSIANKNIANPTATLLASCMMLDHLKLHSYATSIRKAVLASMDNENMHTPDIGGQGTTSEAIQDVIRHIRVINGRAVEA
Assay: SEC-MALS

binding result: binds
B1: α subunit of human NAD-dependent isocitrate dehydrogenase (IDH3) (natural protein)
chain: TGGVQTVTLIPGDGIGPEISAAVMKIFDAAKAPIQWEERNVTAIQGPGGKWMIPSEAKESMDKNKMGLKGPLKTPIAAGHPSMNLLLRKTFDLYANVRPCVSIEGYKTPYTDVNIVTIRENTEGEYSGIEHVIVDGVVQSIKLITEGASKRIAEFAFEYARNNHRSNVTAVHKANIMRMSDGLFLQKCREVAESCKDIKFNEMYLDTVCLNMVQDPSQFDVLVMPNLYGDILSDLCAGLIGGLGVTPSGNIGANGVAIFESVHGTAPDIAGKDMANPTALLLSAVMMLRHMGLFDHAARIEAACFATIKDGKSLTKDLGGNAKCSDFTEEICRRVKDLD
